# Columns and labels:
# [1] = target: recombinant mouse mannose-binding lectin (MBL) (mouse); assay: biolayer interferometry; eOD-60mer dilutions on biosensors loaded with biotinylated recombinant mouse MBL; apparent affinity [eOD-60mer]
# [2] = target: eOD-60mer (eOD-GT8 60mer; eOD-GT8 fused to lumazine synthase, self-assembled 60-mer nanoparticle); assay: biolayer interferometry, eOD-60mer in solution on immobilized biotinylated mouse MBL; apparent affinity (avidity)
Substance,Kd [1],Kd [2]
"eOD-60mer (eOD-GT8 60mer; eOD-GT8 fused to lumazine synthase, self-assembled 60-mer nanoparticle)",3.78 pM,
recombinant mouse mannose-binding lectin (MBL),,4 pM
